Test results: patent publication EP2787008B1 (Samsung Electronics Co., Ltd., dated 2019)

Target: T1, huAbF46-H4-A1 (IgG2 Fc)
T1 construct: Human IgG2 hinge and constant region, human kappa; also called anti-c-Met antibody; biotinylated anti-c-Met antibody
Assay: SPR, Biacore (GE healthcare); format not stated

T1 sequence (VH, as listed by the source, chain 1 of 2): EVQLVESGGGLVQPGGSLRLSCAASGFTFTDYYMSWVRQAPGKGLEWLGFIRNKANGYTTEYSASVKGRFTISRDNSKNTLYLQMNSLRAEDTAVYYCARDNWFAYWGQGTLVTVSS
T1 sequence (VL, as listed by the source, chain 2 of 2): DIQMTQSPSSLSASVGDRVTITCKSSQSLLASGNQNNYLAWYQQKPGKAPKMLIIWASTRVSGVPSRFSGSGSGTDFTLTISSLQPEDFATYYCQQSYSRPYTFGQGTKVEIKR

B1: EW02 (antibody, human IgG1, V domains shown)
VH: EVQLLESGGGLVQPGGSLRLSCAASGFTFSNYAMSWVRQAPGKGLEWVSSISSSGGNTYYADSVKGRFTISRDNSKNTLYLQMNSLGAEDTAVYYCAKYHSVFDYWGQGTLVTVSS
VL: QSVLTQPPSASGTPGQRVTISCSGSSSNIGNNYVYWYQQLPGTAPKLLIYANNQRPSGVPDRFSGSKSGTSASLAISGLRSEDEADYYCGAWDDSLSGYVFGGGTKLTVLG
notes: also called EW02 antibody
How did the Kd turn out when B1 was run?
Its Kd is 38.4 nM.

What about the koff of the same binder?
Its koff is 0.0032 s⁻¹.

What about the kon of the same binder?
The kon was 85000 M⁻¹ s⁻¹.
